Read-outs that look alike come from different tables or passages of the source.
Assays:
[1] = biological target: T1, WhiA;WhiB;sigmaA (sigma HrdB);RbpA;RNA polymerase core (alpha2 beta beta' omega) (Streptomyces venezuelae;Streptomyces …, UniProt F2RGQ4;F2R611;F2R7X6;F2RBH1;F2RJV9;F2RIS5;F2RIS6;F2RCK7 …, ||||); assay: cryo-EM
[2] = biological target: T1, WhiA;WhiB;sigmaA (sigma HrdB);RbpA;RNA …; assay: cryo-EM; remark: listed apart in the source

Binder | binding result [1] | binding result [2]
sepX-2 promoter (cryo-EM, RPo-2) (dsDNA) DNA 1: GTGATATCAGCCAGATCGTGCGACACACCGGGCCAATTGGCTTGACACC DNA 2: GGTGTCAAGCCAATTGGCCCGGTGTGTCGCACGATCTGGCTGATATCAC | binds | 
sepX promoter (cryo-EM, RPo) (dsDNA) DNA 1: GTGATATCAGCCAGATCGTGCGACACACCGGGCCAATTGGCCGATGCCGTCCCGCGAACCCCTCTACCGTGTGAGGCGTGAGCAGCAGCGGCCTCATCGC DNA 2: GCGATGAGGCCGCTGCTGCTCACGCCTCACACGGTAGAGGGGTTCGCGGGACGGCATCGGCCAATTGGCCCGGTGTGTCGCACGATCTGGCTGATATCAC |  | binds
